Values joined by “and” are separate entries in the source; they are usually repeats but may differ in a detail not shown here. Equal entries are not always repeated.
Tested on: H1 or H9 human embryonic stem cells
Assay: Activin A bioassay: differentiation of human embryonic stem cells to definitive endoderm, cell number and SOX17 intensity by high content analysis (96-well, four days);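 for Cell Number average: Raw total cell count per well from high content imaging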;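 for Sox 17 Intensity average: total fluorescence of the cell multiplied by cell area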
Type: cell-based
Settings: for Sox 17 Intensity % of control: control = R&D Sys Activin A 100 ng/ml on same plate
Source text: Activin A is an important mediator of differentiation in a broad range of cell types. […] A bioassay that measures this differentiation in human embryonic stem cells was adapted in miniaturized format to 96-well plates for screening purposes. Validation was completed using treatment with commercial sources of activin A and Wnt3a recombinant proteins and measuring protein expression of the transcription factor SOX17, which is considered a representative marker of definitive endoderm.
Live Cell Assay: Briefly, clusters of H1 or H9 human embryonic stem cells were grown on growth factor-reduced MATRIGEL™ (Invitrogen; Cat #356231)-coated tissue culture plastic. Cells were passaged using collagenase (Invitrogen; Cat # Cat #17104-019) treatment and gentle scraping, washed to remove residual enzyme, and plated in a ratio of 1:1 (surface area) on growth factor-reduced MATRIGEL™-coated 96-well plates (black, 96-well; Packard ViewPlates; Cat #6005182). Cells were allowed to attach as clusters and then recover log phase growth over a 1 to 3 day period, feeding daily with MEF conditioned medium supplemented with 8 ng/ml bFGF (R&D Systems; Cat #233-FB).
The assay was initiated by washing the wells of each plate twice in PBS and followed by adding an aliquot (100 μl) of test sample in DMEM:F12 basal medium (Invitrogen; Cat #11330-032) to each well. Test conditions were performed in triplicate, feeding […] by aspirating and replacing the medium from each well with test samples over a total four day assay period. On the first and second day of assay, test samples added to the assay wells were diluted in DMEM:F12 with 0.5% FCS (HyClone; Cat #SH30070.03) and 20 ng/ml Wnt3a (R&D Systems; Cat #1324-WN). On the third and fourth day of assay, test samples added to the assay wells were diluted in DMEM:F12 with 2% FCS, without any Wnt3a. Positive control samples consisted of recombinant human activin A (Peprotech; Cat #120-14) added at a concentration of 100 ng/ml throughout assay plus Wnt3a (20 ng/ml) on days 1 and 2. Negative control samples omitted treatment with both activin A and Wnt3a.
High Content Analysis: At the conclusion of four days of culture, assay plates were washed twice with PBS, fixed with 4% paraformaldehyde at room temperature for 20 minutes, then washed three times with PBS and permeabilized with 0.5% Triton X-100 for 20 minutes at room temperature. Cells were washed again three times with PBS and blocked with 4% chicken serum (Invitrogen; Cat #16110082) in PBS for 30 minutes at room temperature. Primary antibody (goat anti-human SOX17; R&D Systems; cat #AF1924) was diluted 1:100 in 4% chicken serum and added to each well for one hour at room temperature. Alexa Fluor 488 conjugated secondary antibody (chicken anti-goat IgG; Molecular Probes; Cat #) was diluted 1:200 in PBS and added to each sample well after washing three times with PBS. To counterstain nuclei, 4 μg/ml Hoechst 33342 (Invitrogen; Cat #H3570) was added for ten minutes at room temperature. Plates were washed once with PBS and left in 100 μl/well PBS for imaging.
Imaging was performed using an IN Cell Analyzer 1000 (GE Healthcare) utilizing the 51008bs dichroic for cells stained with Hoechst 33342 and Alexa Fluor 488. Exposure times were optimized from positive control wells and from untreated negative control wells stained with secondary antibody alone. Images from 15 fields per well were acquired to compensate for any cell loss during the bioassay and subsequent staining procedures. Measurements for total cell number and total SOX17 intensity were obtained from each well using IN Cell Developer Toolbox 1.7 (GE Healthcare) software. Segmentation for the nuclei was determined based on grayscale levels (baseline range 100-300) and nuclear size. Averages and standard deviations were calculated for each replicate data set. […]

[1] = supernatant concentration 1x, assay dilution 1:20
[2] = supernatant concentration 10x, assay dilution 1:20
[3] = supernatant concentration 10x, assay dilution 1:40
[4] = supernatant concentration 10x, assay dilution 1:20, assay plates #007, #009, #010
[5] = supernatant concentration 50x, assay dilution 1:20, assay plates #008, #009

Row | Molecule | Cell Number average [1] | Sox 17 Intensity average [1] | Sox 17 Intensity % of control [1] [%] | Cell Number average [2] | Sox 17 Intensity average [2] | Sox 17 Intensity % of control [2] | Cell Number average [3] | Sox 17 Intensity average [3] | Sox 17 Intensity % of control [3] [%] | Cell Number average [4] | Sox 17 Intensity average [4] | Cell Number average [5] | Sox 17 Intensity average [5] | Sox 17 Intensity % of control (supernatant concentration 50x, assay dilution 1:20) [%]
1 | ACTN52: activin A variant peptide, SEQ ID 53 (protein) GLECDGKVNICCKKQLFGKTKDIGWNDWIIAPSGYHGGSCTGECPSHIAGTSGSSLSFHSTVINHYRMRGHSPNANLKSCCSPTKLRPMSMLYYDDGQNIIKKDIQGMKVEECGCT | 3092 | 1.17E+05 | 1.3 | 4869 | 2.64E+04 | 0.3% | 3900 | 9.50E+04 | 1.0 | – | – | – | – | –
2 | ACTN59: activin A variant peptide, SEQ ID 60 (protein) GLECDGKVNICCKKQLFGQTKDIGWNDWIIAPSGYHGGGCTGECPSHIAGTSGSSLSFHSTVINHYRMRGHSPNANLKSCCAPTKLRPMSMLYYDDGQNIIKKDIQGMKVEECGCV | 2613 | 1.09E+06 | 3.7 | 3304 | 2.11E+06 | 7.1% | 1776 | 1.81E+06 | 6.1 | – | – | – | – | –
3 | ACTN53: activin A variant peptide, SEQ ID 54 (protein) GLECDGKVNICCKKQEFGQAKDIGWNDWIIAPSGYHGGGCSGECPSHIAGTSGSSLSFHSTVINHYRMRGHSPWANLKSCCSPTKLRPMSMLYYDDGQNIIKKDIQGMKVEECGCT | 1610 | 1.14E+06 | 3.8 | 3229 | 1.51E+06 | 5.1% | 3476 | 9.41E+05 | 3.2 | – | – | – | – | –
4 | ACTN64: activin A variant peptide, SEQ ID 65 (protein) GLECDGKVNICCKKQSFGQTKDIGWNDWIIAPSGYHGGGCSGECPSHIAGTSGSSLSFHSTVINHYRMRGHSPWANLKSCCSPTKLRPMSMLYYDDGQNIIKKDIQGMVVEECGCT | 2415 | 1.30E+06 | 4.4 | 2215 | 1.55E+06 | 5.2% | 2688 | 1.12E+06 | 3.8 | – | – | – | – | –
5 | ACTN57: activin A variant peptide, SEQ ID 58 (protein) GLECDGKVNICCKKQSFGQAKDIGWNDWIIAPSGYHGGGCSGECPSHIAGTSGSSLSFHSTVINHYRMRGHSPWANLKSCCSPTKLRPMSMLYYDDGQNIIKKDIQNMKVEECGCT | 4485 | 9.99E+05 | 3.4 | 6471 | 1.74E+06 | 5.9% and 6.8% | 4594 | 1.30E+06 | 4.4 | 9442 | 1.70E+06 | 12697 | 7.82E+06 | 31.4
6 | ACTN63: activin A variant peptide, SEQ ID 64 (protein) GLECDGKVNICCKKQSFSQAKDIGWNDWIIAPSGYHGGGCTGECPSHIAGTSGSSLSFHSTVINHYRMRGHSPFANLKSCCSPTKLRPMSMLYYDDGQNIIKKDIQGMVVEECGCT | 3380 | 1.07E+06 | 3.6 | 1935 | 2.28E+06 | 7.7% | 2718 | 2.01E+06 | 6.8 | – | – | – | – | –
7 | ACTN71: activin A variant peptide, SEQ ID 72 (protein) GLECDGKVNICCKKQSFGQAKDIGWNDWIIAPSGYHGGGCTGECPSHIAGTSGSSLSFHSTVINHYRMRGHSPFANLKSCCSPTKLRPMSMLYYDDGQNIIKKDIQNMKVEECGCT | 1621 | 2.45E+05 | 0.8 | 3909 | 3.61E+05 | 1.2% | 1970 | 1.01E+06 | 3.4 | – | – | – | – | –
8 | ACTN62: activin A variant peptide, SEQ ID 63 (protein) GLECDGKVNICCKKQSFGQAKDIGWNDWIIAPSGYHGGGCTGECPSHIAGTSGSSLSFHSTVINHYRMRGHSPWANLKSCCSPTKLRPMSMLYYDDGQNIIKKDIQNMVVEECGCT | 1661 | 1.05E+06 | 3.6 | 5728 | 2.45E+05 | 0.8% | 3782 | 1.33E+06 | 4.5 | – | – | – | – | –
9 | ACTN55: activin A variant peptide, SEQ ID 56 (protein) GLECDGKVNICCKKQSFGQTKDIGWNDWIIAPSGYHGGGCTGECPSHIAGTSGSSLSFHSTVINHYRMRGHSPWANLKSCCSPTKLRPMSMLYYDDGQNIIKKDIQGMVVEECGCT | 2425 | 3.41E+05 | 1.2 | 3611 | 2.67E+05 | 0.9% | 2761 | 5.44E+05 | 1.8 | – | – | – | – | –
10 | ACTN47: activin A variant peptide, SEQ ID 48 (protein) GLECDGKVNYCCKKQNFVSFKDIGWNDWIIAPSGYHANECSGKCPSHIAGTSGSSLSFHSTVINHYRMRGHSPFSDMGSCCIPTKLRPMSMLYYDDGQNIIKKDIQNMIVEECGCS | 2624 | 7.48E+05 | 8.0 | 1399 | 4.27E+06 | 45.7% | 1610 | 1.09E+06 | 11.7 | – | – | – | – | –

From patent publication US20110091971A1, “Differentiation of Pluripotent Stem Cells” (priority 2008, published 2011)
